IntAct's records for PubMed 19855379

B1: Abscisic acid receptor PYL1 (Arabidopsis thaliana (Mouse-ear cress)), Q8VZS8 (parent)
chain: MANSESSSSPVNEEENSQRISTLHHQTMPSDLTQDEFTQLSQSIAEFHTYQLGNGRCSSLLAQRIHAPPETVWSVVRRFDRPQIYKHFIKSCNVSEDFEMRVGCTRDVNVISGLPANTSRERLDLLDDDRRVTGFSITGGEHRLRNYKSVTTVHRFEKEEEEERIWTVVLESYVVDVPEGNSEEDTRLFADTVIRLNLQKLASITEAMNRNNNNNNSSQVR
B2: Protein phosphatase 2C 56 (Arabidopsis thaliana (Mouse-ear cress)), P49597 (parent)
chain: MEEVSPAIAGPFRPFSETQMDFTGIRLGKGYCNNQYSNQDSENGDLMVSLPETSSCSVSGSHGSESRKVLISRINSPNLNMKESAAADIVVVDISAGDEINGSDITSEKKMISRTESRSLFEFKSVPLYGFTSICGRRPEMEDAVSTIPRFLQSSSGSMLDGRFDPQSAAHFFGVYDGHGGSQVANYCRERMHLALAEEIAKEKPMLCDGDTWLEKWKKALFNSFLRVDSEIESVAPETVGSTSVVAVVFPSHIFVANCGDSRAVLCRGKTALPLSVDHKPDREDEAARIEAAGGKVIQWNGARVFGVLAMSRSIGDRYLKPSIIPDPEVTAVKRVKEDDCLILASDGVWDVMTDEEACEMARKRILLWHKKNAVAGDASLLADERRKEGKDPAAMSAAEYLSKLAIQRGSKDNISVVVVDLKPRRKLKSKPLN

Variants of: B1
Settings: with ABI1, P49597

Row | effect of a mutation on the interaction | Variant
1 | disrupting interaction | H142A
2 | decreasing interaction | F189A
3 | decreasing interaction | R143A
4 | disrupting interaction | L144A

Variants of: B2
Settings: with pyl1_arath PYL1, Q8VZS8

Row | effect of a mutation on the interaction | Variant
5 | decreasing interaction | Y319A
6 | disrupting interaction | W300A
7 | decreasing interaction | E142A
8 | disrupting interaction | R304A
9 | disrupting interaction | I298A
